{"source": "patent US11110115B2", "about": "“Nucleic acid molecule with anti-inflammatory and anti-coagulant and organ-protective properties” (APTAHEM AB, priority 2017, dated 2021)", "molecules": {"B1": {"name": "SEQ ID NO:2: nucleic acid sequence of SEQ ID NO:1 in which each C and U is fluorinated to increase stability in plasma (nucleic acid)", "chain": "GGGAAUUCGAGCUCGGUACCAACAAUACGACUACACCAUCAAAAGUAUUAUCUUGCAUCGAAGGUUGGCACGUAGCAAGCUCUGCAGUCG", "modifications": "fluorinated C and U; (6)..(7) uracil is fluorinated; (8)..(8) cytosine is fluorinated; (12)..(12) cytosine is fluorinated; (13)..(13) uracil is fluorinated; (14)..(14) cytosine is fluorinated; (17)..(17) uracil is fluorinated; (19)..(20) cytosine is fluorinated; (23)..(23) cytosine is fluorinated; (26)..(26) uracil is fluorinated; (28)..(28) cytosine is fluorinated; (31)..(31) cytosine is fluorinated; (32)"}}, "key": {"[1]": {"test": "Activated partial thromboplastin time (APTT) in arteriovenous shunt model", "type": "in vivo, Sprague-Dawley male rats", "conditions": "SEQ ID NO:2 33.3 mg/kg i.v. 5 min prior; Rivaroxaban 10 mg/kg p.o. 90 min prior"}, "[2]": {"test": "Ferric chloride induced arterial thrombosis model (clot weight and size)", "type": "in vivo, Sprague-Dawley rats", "conditions": "60 min after FeCl3; SEQ ID NO:2 5, 20, 40 mg/kg i.v.; Rivaroxaban 10 mg/kg oral; Warfarin 0.5 mg/kg i.v.", "protocol": "Animal handling was performed according to guidelines of the National Institute of Health (NIH) and the Association for Assessment and Accreditation of Laboratory Animal Care (AAALAC). A total of 36 Sprague-Dawley rats (Envigo RMS) were divided into six groups comprising of 6 animals per group (3 males and 3 females). […] Both were fed ad libitum a rodent diet. Animals had free access to autoclaved and acidified drinking water. Animals were housed under standard laboratory conditions, air conditioned and filtered with adequate fresh air supply. Animals were kept in a climate controlled environment.\nSEQ ID NO:2 (Biospring) (100 mg) was dissolved in 5 ml saline to form a stock solution of 20 mg/ml. Vehicle (saline, Teva) as ready to use for i.v. administration. Rivaroxaban (Bayer, Pharamseed Ltd) dosing solution was diluted at 10 mg/kg (Group 2M). Warfarin (Ceriliant, Pharmaseed Ltd) was diluted at 0.5 mg/kg (Group 3M). […]\nMale and Female rats were anaesthetized by intraperitoneal injection of ketamine/xylazine. […] The time needed for occlusion to occur was measured for up to 60 min, and occlusion time was assigned a value of 60 min for vessels that […].\nClot formation was followed for 60 minutes following application of FeCl3. […] The artery wall was cut longitudinally; clot was taken out, weighed and measured by caliper. […]"}, "[3]": {"test": "Expanded toxicology panel of serum in LPS-induced shock", "type": "in vivo, C57BL/6 mice", "conditions": "blood at Hour 28", "protocol": "In this study, female C57BL/6 mice of 10-12 weeks old (Taconic Biosciences) were used. Animals had free access to autoclaved and acidified drinking water. Animals were housed under standard laboratory conditions, air conditioned and filtered with adequate fresh air supply. Animals were kept in a climate-controlled environment. Lipopolysaccharide (LPS) from E. coli (O111:B4) was diluted in PBS. SEQ ID NO:2 was stored in powder form at 4° C. until use. Powder was added to saline and vortexed into solution to prepare SEQ ID NO:2 stock solution. […] For all other groups, LPS was injected intraperitoneally at 10 mg/kg. Mice were intravenously injected 15 minutes and 60 minutes after LPS administration with SEQ ID NO:2 at concentrations of 10, 25, 50 and 100 mg/kg. […] Blood collected at Hour 28 was analyzed for expanded toxicology panel performed by IDEXX Laboratories, Inc. (N. Grafton, Mass.). We attempted to collect enough blood to run each analysis 5 times for each group. The extended toxicology analysis measured concentrations of AST, ALT, creatine kinase, albumin, total protein, BUN, cholesterol, glucose, phosphorus, triglycerides, HDL cholesterol, bile acid, LDL cholesterol, total bilirubin, GGT, bilirubin conjugated, and creatinine. Here, results are shown for AST, ALT, creatine kinase, albumin, total protein, BUN, cholesterol, phosphorus, triglycerides, cholesterol, and creatinine."}, "[4]": {"conditions": "50 mg/kg at 15 and 60 min after LPS"}, "[5]": {"conditions": "50 mg/kg at 60 and 120 min after LPS"}, "[6]": {"conditions": "groups treated i.v. with SEQ ID NO:2 after LPS"}, "[7]": {"conditions": "overall, groups treated i.v. with SEQ ID NO:2"}}, "note": "“Also recorded” adds a separate entry of the source."}
{"molecule": "B1", "values": [{"measurement": "Activated Partial Thromboplastin Time (APTT) compared to vehicle group", "setting": "[1]", "result": "significant increase"}, {"measurement": "clot size compared to control group (Vehicle)", "setting": "[2]", "result": "reduction"}, {"measurement": "clot weight compared to control group (Vehicle)", "setting": "[2]", "result": "reduction"}, {"measurement": "Cholesterol in serum", "setting": "[3]; 25 mg/kg at 15 and 60 min after LPS", "result": "significant improvements"}, {"measurement": "Cholesterol in serum", "setting": "[3]; [4]", "result": "significant improvements"}, {"measurement": "Creatinine in serum", "setting": "[3]; [4]", "result": "significant improvements"}, {"measurement": "Creatinine in serum", "setting": "[3]; [5]", "result": "significant improvements"}, {"measurement": "Triglycerides in serum", "setting": "[3]; [5]", "result": "significant improvements"}, {"measurement": "serum concentration of ALT compared to vehicle treated group", "setting": "[3]; [6]", "result": "did not reach statistical significance"}, {"measurement": "serum concentration of AST compared to vehicle treated group", "setting": "[3]; [6]", "result": "improvements; also recorded: significantly improved"}, {"measurement": "serum concentration of BUN compared to vehicle treated group", "setting": "[3]; [6]", "result": "improvements; also recorded: significantly improved"}, {"measurement": "serum concentration of creatine kinase compared to vehicle treated group", "setting": "[3]; [6]", "result": "did not reach statistical significance"}, {"measurement": "serum concentration of phosphorus compared to vehicle treated group", "setting": "[3]; [6]", "result": "improvements; also recorded: significantly improved"}, {"measurement": "serum concentration of cholesterol compared to vehicle treated group", "setting": "[3]; [7]", "result": "significantly improved"}, {"measurement": "serum concentration of creatinine compared to vehicle treated group", "setting": "[3]; [7]", "result": "significantly improved"}, {"measurement": "serum concentration of triglycerides compared to vehicle treated group", "setting": "[3]; [7]", "result": "significantly improved"}]}
